Patent US20140348865A1, “[…] ON AN HIV-1 V1V2 SITE-OF-VULNERABILITY” (The United States of America, as represented by the …, priority 2011, published 2014)

Experiments:
[1] = target: 1FD6 ZM109 scaffold N189D; assay: ELISA
[2] = target: 1FD6 ZM109 scaffold N173D; assay: ELISA
[3] = target: 1FD6 ZM109 scaffold N160Q; assay: ELISA
[4] = target: 1FD6 ZM109 scaffold N130D; assay: ELISA
1FD6-ZM109 V1V2 scaffold = assay: ELISA
[5] = target: 1FD6 ZM109 scaffold N138D; assay: ELISA
[6] = target: 1FD6 ZM109 scaffold N192D; assay: ELISA
[7] = target: Env of HIV-1 strain QH0515 (pseudovirus) (HIV-1)
[8] = target: Env of HIV-1 strain 7165.18 (pseudovirus) (HIV-1)
[9] = target: Env of HIV-1 strain RHPA (pseudovirus) (HIV-1)
[10] = target: Env of HIV-1 strain JRFL (pseudovirus) (HIV-1)
[11] = target: Env of HIV-1 strain CNE4 (pseudovirus) (HIV-1)
[12] = target: Env of HIV-1 strain 6405 (pseudovirus) (HIV-1)
[13] = target: Env of HIV-1 strain X2088 (pseudovirus) (HIV-1)
[14] = target: Env of HIV-1 strain A03349M1 (pseudovirus) (HIV-1)

Q: Which EC50 [1] does the source give for monoclonal antibody PG16 here?
A: 4 µg/mL

Q: What about the EC50 [2] of the same substance?
A: > 50 µg/mL

Q: What about the EC50 [3] of the same substance?
A: > 50 µg/mL

Q: What about the EC50 [4] of the same substance?
A: 1.5 µg/mL

Q: What about the EC50 (1FD6-ZM109 V1V2 scaffold) of the same substance?
A: 3.4 µg/mL

Q: What about the EC50 [5] of the same substance?
A: 4.4 µg/mL

Q: What about the EC50 [6] of the same substance?
A: 2.5 µg/mL

Q: What about the neutralization IC80 (CH070.1 (HIV-1)) of the same substance?
A: 0.013 µg/mL

Q: And the neutralization IC80 (SF162.LS (HIV-1))?
A: > 50 µg/mL

Q: And the neutralization IC80 (JRCSF.JB (HIV-1))?
A: 0.015 µg/mL

Q: What about the neutralization IC80 (BL01.DG (HIV-1)) of the same substance?
A: > 50 µg/mL

Q: And the neutralization IC80 (SS1196.01 (HIV-1))?
A: 2.9 µg/mL

Q: What about the neutralization IC80 (T33-7 (HIV-1)) of the same substance?
A: 0.279 µg/mL

Q: And the neutralization IC80 (WITO.33 (HIV-1))?
A: < 0.023 µg/mL

Q: What about the neutralization IC80 (AC10.29 (HIV-1)) of the same substance?
A: 0.088 µg/mL

Q: What about the neutralization IC80 (CNE14 (HIV-1)) of the same substance?
A: > 50 µg/mL

Q: And the neutralization IC80 (HO86.8 (HIV-1))?
A: 0.02 µg/mL

Q: What about the neutralization IC80 (MN.3 (HIV-1)) of the same substance?
A: > 50 µg/mL

Q: What about the neutralization IC80 (DJ263.8 (HIV-1)) of the same substance?
A: 1.11 µg/mL

Q: What about the neutralization IC80 (Bal.01 (HIV-1)) of the same substance?
A: > 50 µg/mL

Q: What about the neutralization IC80 (T257-31 (HIV-1)) of the same substance?
A: 0.021 µg/mL

Q: What about the neutralization IC80 (BR07.DG (HIV-1)) of the same substance?
A: > 50 µg/mL

Q: And the neutralization IC80 (CNE12 (HIV-1))?
A: > 50 µg/mL

Q: And the neutralization IC80 (T266-60 (HIV-1))?
A: > 50 µg/mL

Q: What about the neutralization IC80 [7] of the same substance?
A: > 50 µg/mL

Q: What about the neutralization IC80 (TRJO.58 (HIV-1)) of the same substance?
A: 13.9 µg/mL

Q: What about the neutralization IC80 (T255-34 (HIV-1)) of the same substance?
A: 0.079 µg/mL

Q: What about the neutralization IC80 [8] of the same substance?
A: > 50 µg/mL

Q: What about the neutralization IC80 (T280-5 (HIV-1)) of the same substance?
A: 4.53 µg/mL

Q: And the neutralization IC80 (CNE57 (HIV-1))?
A: > 50 µg/mL

Q: And the neutralization IC80 (HXB2.DG (HIV-1))?
A: > 50 µg/mL

Q: And the neutralization IC80 (SC422.8 (HIV-1))?
A: > 50 µg/mL

Q: And the neutralization IC80 (TRO.11 (HIV-1))?
A: > 50 µg/mL

Q: And the neutralization IC80 (THRO.18 (HIV-1))?
A: > 50 µg/mL

Q: What about the neutralization IC80 (QH0692.42 (HIV-1)) of the same substance?
A: > 50 µg/mL

Q: And the neutralization IC80 (CAAN.A2 (HIV-1))?
A: > 50 µg/mL

Q: And the neutralization IC80 [9]?
A: > 50 µg/mL

Q: What about the neutralization IC80 (BX08_16 (HIV-1)) of the same substance?
A: 38.8 µg/mL

Q: What about the neutralization IC80 (CNE10 (HIV-1)) of the same substance?
A: > 50 µg/mL

Q: What about the neutralization IC80 [10] of the same substance?
A: > 50 µg/mL

Q: What about the neutralization IC80 (PVO.04 (HIV-1)) of the same substance?
A: > 50 µg/mL

Q: And the neutralization IC80 (ADA.DG (HIV-1))?
A: 0.458 µg/mL

Q: And the neutralization IC80 [11]?
A: > 50 µg/mL

Q: And the neutralization IC80 (REJO.67 (HIV-1))?
A: 0.4 µg/mL

Q: What about the neutralization IC80 (BaL.26 (HIV-1)) of the same substance?
A: > 50 µg/mL

Q: What about the neutralization IC80 (T278-50 (HIV-1)) of the same substance?
A: > 50 µg/mL

Q: And the neutralization IC50 (3326.V4.C3)?
A: < 0.023 µg/mL

Q: What about the neutralization IC50 (ZM53.12) of the same substance?
A: < 0.023 µg/mL

Q: What about the neutralization IC50 (ZM249.1) of the same substance?
A: 0.073 µg/mL

Q: What about the neutralization IC50 [12] of the same substance?
A: > 50 µg/mL

Q: What about the neutralization IC50 (ZM214.15) of the same substance?
A: > 50 µg/mL

Q: What about the neutralization IC50 [13] of the same substance?
A: > 50 µg/mL

Q: And the neutralization IC50 (ZM197.7)?
A: 0.65 µg/mL

Q: What about the neutralization IC50 (231965.c1) of the same substance?
A: 4.72 µg/mL

Q: What about the neutralization IC50 (SVA.MLV) of the same substance?
A: > 50 µg/mL

Q: And the neutralization IC50 (3016.v5.c45)?
A: > 50 µg/mL

Q: What about the neutralization IC50 (NKU3006.ec1) of the same substance?
A: > 50 µg/mL

Q: And the neutralization IC50 (57128.vrc15)?
A: 0.162 µg/mL

Q: What about the neutralization IC50 (SIVmac251.30.SG3) of the same substance?
A: > 50 µg/mL

Q: What about the neutralization IC50 [14] of the same substance?
A: > 50 µg/mL

Q: What about the neutralization IC50 (ZM55.28a) of the same substance?
A: > 50 µg/mL

Q: What about the neutralization IC50 (UG021.16) of the same substance?
A: > 50 µg/mL

Q: What about the neutralization IC50 (3337.V2.C6) of the same substance?
A: > 50 µg/mL

Q: And the neutralization IC50 (UG024.2)?
A: > 50 µg/mL

Q: Which EC50 [1] does the source give for monoclonal antibody PG9 here?
A: 0.1 µg/mL

Q: What about the EC50 [2] of the same substance?
A: 7 µg/mL

Q: What about the EC50 [3] of the same substance?
A: > 50 µg/mL

Q: What about the EC50 [4] of the same substance?
A: 0.4 µg/mL

Q: And the EC50 (1FD6-ZM109 V1V2 scaffold)?
A: 0.1 µg/mL

Q: And the EC50 [5]?
A: 0.2 µg/mL

Q: What about the EC50 [6] of the same substance?
A: 0.1 µg/mL

Q: What about the neutralization IC80 (CH070.1 (HIV-1)) of the same substance?
A: 0.024 µg/mL

Q: And the neutralization IC80 (SF162.LS (HIV-1))?
A: > 50 µg/mL

Q: What about the neutralization IC80 (JRCSF.JB (HIV-1)) of the same substance?
A: 0.009 µg/mL

Q: What about the neutralization IC80 (BL01.DG (HIV-1)) of the same substance?
A: > 50 µg/mL

Q: What about the neutralization IC80 (SS1196.01 (HIV-1)) of the same substance?
A: 3.08 µg/mL

Q: And the neutralization IC80 (T33-7 (HIV-1))?
A: 0.087 µg/mL

Q: What about the neutralization IC80 (WITO.33 (HIV-1)) of the same substance?
A: 0.03 µg/mL

Q: And the neutralization IC80 (AC10.29 (HIV-1))?
A: 0.306 µg/mL

Q: And the neutralization IC80 (CNE14 (HIV-1))?
A: > 50 µg/mL

Q: What about the neutralization IC80 (HO86.8 (HIV-1)) of the same substance?
A: 0.125 µg/mL

Q: And the neutralization IC80 (MN.3 (HIV-1))?
A: > 50 µg/mL

Q: And the neutralization IC80 (DJ263.8 (HIV-1))?
A: 0.733 µg/mL

Q: What about the neutralization IC80 (Bal.01 (HIV-1)) of the same substance?
A: 1.52 µg/mL

Q: What about the neutralization IC80 (T257-31 (HIV-1)) of the same substance?
A: 0.075 µg/mL

Q: And the neutralization IC80 (BR07.DG (HIV-1))?
A: > 50 µg/mL

Q: And the neutralization IC80 (CNE12 (HIV-1))?
A: > 50 µg/mL

Q: What about the neutralization IC80 (T266-60 (HIV-1)) of the same substance?
A: > 50 µg/mL

Q: What about the neutralization IC80 [7] of the same substance?
A: > 50 µg/mL

Q: What about the neutralization IC80 (TRJO.58 (HIV-1)) of the same substance?
A: 3.22 µg/mL

Q: What about the neutralization IC80 (T255-34 (HIV-1)) of the same substance?
A: 0.114 µg/mL

Q: And the neutralization IC80 [8]?
A: > 50 µg/mL

Q: What about the neutralization IC80 (T280-5 (HIV-1)) of the same substance?
A: 1.94 µg/mL

Q: And the neutralization IC80 (CNE57 (HIV-1))?
A: > 50 µg/mL

Q: And the neutralization IC80 (HXB2.DG (HIV-1))?
A: 10.2 µg/mL

Q: What about the neutralization IC80 (SC422.8 (HIV-1)) of the same substance?
A: 38.6 µg/mL

Q: And the neutralization IC80 (TRO.11 (HIV-1))?
A: > 50 µg/mL

Q: What about the neutralization IC80 (THRO.18 (HIV-1)) of the same substance?
A: > 50 µg/mL

Q: What about the neutralization IC80 (QH0692.42 (HIV-1)) of the same substance?
A: > 50 µg/mL

Q: And the neutralization IC80 (CAAN.A2 (HIV-1))?
A: > 50 µg/mL

Q: What about the neutralization IC80 [9] of the same substance?
A: > 50 µg/mL

Q: And the neutralization IC80 (BX08_16 (HIV-1))?
A: 0.273 µg/mL

Q: What about the neutralization IC80 (CNE10 (HIV-1)) of the same substance?
A: 1.61 µg/mL

Q: What about the neutralization IC80 [10] of the same substance?
A: > 50 µg/mL

Q: What about the neutralization IC80 (PVO.04 (HIV-1)) of the same substance?
A: 37.1 µg/mL

Q: And the neutralization IC80 (ADA.DG (HIV-1))?
A: > 50 µg/mL

Q: And the neutralization IC80 [11]?
A: > 50 µg/mL

Q: What about the neutralization IC80 (REJO.67 (HIV-1)) of the same substance?
A: 0.08 µg/mL

Q: And the neutralization IC80 (BaL.26 (HIV-1))?
A: 0.365 µg/mL

Q: And the neutralization IC80 (T278-50 (HIV-1))?
A: 6.06 µg/mL

Q: What about the neutralization IC50 (3326.V4.C3) of the same substance?
A: < 0.023 µg/mL

Q: And the neutralization IC50 (ZM53.12)?
A: 0.041 µg/mL

Q: And the neutralization IC50 (ZM249.1)?
A: 0.033 µg/mL

Q: And the neutralization IC50 [12]?
A: > 50 µg/mL

Q: And the neutralization IC50 (ZM214.15)?
A: > 50 µg/mL

Q: What about the neutralization IC50 [13] of the same substance?
A: > 50 µg/mL

Q: And the neutralization IC50 (ZM197.7)?
A: 0.414 µg/mL

Q: And the neutralization IC50 (231965.c1)?
A: 1.51 µg/mL

Q: And the neutralization IC50 (SVA.MLV)?
A: > 50 µg/mL

Q: What about the neutralization IC50 (3016.v5.c45) of the same substance?
A: 0.286 µg/mL

Q: And the neutralization IC50 (NKU3006.ec1)?
A: > 50 µg/mL

Q: And the neutralization IC50 (57128.vrc15)?
A: 0.104 µg/mL

Q: And the neutralization IC50 (SIVmac251.30.SG3)?
A: > 50 µg/mL

Q: What about the neutralization IC50 [14] of the same substance?
A: > 50 µg/mL

Q: And the neutralization IC50 (ZM55.28a)?
A: 0.571 µg/mL

Q: And the neutralization IC50 (UG021.16)?
A: > 50 µg/mL

Q: What about the neutralization IC50 (3337.V2.C6) of the same substance?
A: > 50 µg/mL

Q: And the neutralization IC50 (UG024.2)?
A: 3.94 µg/mL
